Assay results published in patent US20240343815A1 (CHIA TAI TIANQING PHARMACEUTICAL GROUP, published 2024).

Molecular target: T1, recombinant human IL4Rα-his protein (human, UniProt P24394 26-232, biotinylated in the capture ELISA and the benchmark blocking ELISA)
T1 construct: also called biotinylated human IL4Rα-his protein
Experiment: SPR Biacore, mAb captured, IL4Rα-his analyte
Protocol: Briefly, a goat anti-human IgG (GE Healthcare, Cat. No. BR100839, Human Antibody Capture Kit) was covalently attached to a CMS chip (carboxymethylated dextran-coated chip) via the primary amine group using a standard amine coupling kit supplied by Biacore (GE Healthcare, Pittsburgh, PA, USA). Unreacted portions on the biosensor surface were blocked with ethanolamine. Then, the anti-IL4Rα antibody in the present disclosure at 66.67 nM and an anti-IL4Rα antibody benchmark (dupilumab, or DUPIXENT® or BM) at 10 μg/mL were directed through the chip at a flow rate of 10 μL/min. A recombinant human IL4Rα-his protein (prepared in-house, amino acid sequence set forth in SEQ ID NO: 15), a cynomolgus monkey IL4Rα-his protein (Sino Biological Inc., Cat. No. 90897-008H), or a marmoset monkey IL4Rα-his protein (customized product from Sino Biological Inc., denoted as cal-IL4Rα-his, amino acid sequence set forth in SEQ ID NO: 16) serially diluted with an HBS EP buffer (supplied by Biacore) was directed through the chip at a flow rate of 30 μIJmin. The antigen-antibody binding kinetics was tracked for 2 min and the dissociation kinetics was tracked for 10 min. The association and dissociation curves were fitted according to a 1:1 Langmuir binding model using BIA evaluation software, and the KD, Kₐ, and Kd values were determined.
According to the protocol in the examples above, the binding affinity of the humanized antibodies to human IL4Rα was assessed by the BIAcore technique, and the Kₐ, Kd, and KD values were determined and summarized in Table 3.

Dissociation (%) | Binder
-0.59 | huC2C1A1A1-V6 (antibody, human IgG4 S228P, kappa, V domains shown, Humanized IgG4/kappa) VH: EVQLVESGGGLVQPGGSLRLSCAASGFTFSTYGMSWVRQSPDKRLEWVSTINSNGGSTSYPDSVKGRFTISRDNAKNTLYLQMRSLRAEDTAVYYCARFFRFRNAMDYWGQGTLVTVSS VL: DIQMTQSPSSLSASVGQRVTITCRTSENIYSYLAWYQQKQGKPPRFLIYNAKTLAEGVPSRFSGSGSGTEFTLTITSLQAEDFGVYYCQHYYGPPTWTFGPGTKLEIKR
0.2 | huC2C1A1A1-V4 (antibody, human IgG4 S228P, kappa, V domains shown, Humanized IgG4/kappa) VH: EVQLVESGGGLVQPGGSLRLSCAASGFTFSTYGMSWVRQAPGKGLVWVSTINSNGGSTSYPDSVKGRFTISRDNAKNTLYLQMNSLRAEDTAVYYCARFFRFRNAMDYWGQGTLVTVSS VL: DIQMTQSPSSLSASVGDRVTITCRTSENIYSYLAWYQQKPGKAPKFLIYNAKTLAEGVPSRFSGSGSGTDFTLTISSLQPEDFATYYCQHYYGPPTWTFGQGTKVEIKR
-1.54 | huC2C1A1A1-V10 (antibody, human IgG4 S228P, kappa, V domains shown, Humanized IgG4/kappa) VH: EVQLVESGGGLVQPGGSLRLSCAASGFTFSTYGMSWVRQAPGKGLVLVATINSNGGSTSYPDSVKGRFTISRDNAKNTLYLQMNSLRAEDTAVYYCARFFRFRNAMDYWGQGTLVTVSS VL: DIQMTQSPSSLSASVGQRVTITCRTSENIYSYLAWYQQKQGKPPRFLIYNAKTLAEGVPSRFSGSGSGTEFTLTITSLQAEDFGVYYCQHYYGPPTWTFGPGTKLEIKR
0.29 | huC2C1A1A1-V15 (antibody, human IgG4 S228P, kappa, V domains shown, Humanized IgG4/kappa) VH: EVQLVESGGGLVQPGGSLRLSCAASGFTFSTYGMSWVRQAPGKGLVWVATINSNGGSTSYPDSVKGRFTISRDNAKNTLYLQMNSLRAEDTAVYYCARFFRFRNAMDYWGQGTLVTVSS VL: DIQMTQSPSSLSASVGDRVTITCRTSENIYSYLAWYQQKPGKAPKFLVYNAKTLAEGVPSRFSGSGSGTDFTLTISSLQPEDFATYYCQHYYGPPTWTFGQGTKVEIKR
-0.66 | huC2C1A1A1-V7 (antibody, human IgG4 S228P, kappa, V domains shown, Humanized IgG4/kappa) VH: EVQLVESGGGLVQPGGSLRLSCAASGFTFSTYGMSWVRQSPDKRLEWVSTINSNGGSTSYPDSVKGRFTISRDNAKNTLYLQMRSLRAEDTAVYYCARFFRFRNAMDYWGQGTLVTVSS VL: DIQMTQSPSSLSASVGDRVTITCRTSENIYSYLAWYQQKPGKAPKFLVYNAKTLAEGVPSRFSGSGSGTDFTLTISSLQPEDFATYYCQHYYGPPTWTFGQGTKVEIKR
-0.42 | huC2C1A1A1-V16 (antibody, human IgG4 S228P, kappa, V domains shown, Humanized IgG4/kappa) VH: EVQLVESGGGLVQPGGSLRLSCAASGFTFSTYGMSWVRQAPGKGLVWVATINSNGGSTSYPDSVKGRFTISRDNAKNTLYLQMNSLRAEDTAVYYCARFFRFRNAMDYWGQGTLVTVSS VL: DIQMTQSPSSLSASVGDRVTITCRTSENIYSYLAWYQQKPGKAPKFLIYNAKTLAEGVPSRFSGSGSGTDFTLTISSLQPEDFATYYCQHYYGPPTWTFGQGTKVEIKR
0.23 | huC2C1A1A1-V1 (antibody, human IgG4 S228P, kappa, V domains shown, Humanized IgG4/kappa) VH: EVQLVESGGGLVQPGGSLRLSCAASGFTFSTYGMSWVRQAPGKGLVWVSTINSNGGSTSYPDSVKGRFTISRDNAKNTLYLQMNSLRAEDTAVYYCARFFRFRNAMDYWGQGTLVTVSS VL: DIQMTQSPSSLSASVGDRVTITCRTSENIYSYLAWYQQKPGKAPKLLIYNAKTLAEGVPSRFSGSGSGTDFTLTISSLQPEDFATYYCQHYYGPPTWTFGQGTKVEIKR
-1.88 | huC2C1A1A1-V12 (antibody, human IgG4 S228P, kappa, V domains shown, Humanized IgG4/kappa) VH: EVQLVESGGGLVQPGGSLRLSCAASGFTFSTYGMSWVRQAPGKGLVLVATINSNGGSTSYPDSVKGRFTISRDNAKNTLYLQMNSLRAEDTAVYYCARFFRFRNAMDYWGQGTLVTVSS VL: DIQMTQSPSSLSASVGDRVTITCRTSENIYSYLAWYQQKPGKAPKFLIYNAKTLAEGVPSRFSGSGSGTDFTLTISSLQPEDFATYYCQHYYGPPTWTFGQGTKVEIKR
0.82 | huC2C1A1A1-V13 (antibody, human IgG4 S228P, kappa, V domains shown, Humanized IgG4/kappa) VH: EVQLVESGGGLVQPGGSLRLSCAASGFTFSTYGMSWVRQAPGKGLVWVATINSNGGSTSYPDSVKGRFTISRDNAKNTLYLQMNSLRAEDTAVYYCARFFRFRNAMDYWGQGTLVTVSS VL: DIQMTQSPSSLSASVGDRVTITCRTSENIYSYLAWYQQKPGKAPKLLIYNAKTLAEGVPSRFSGSGSGTDFTLTISSLQPEDFATYYCQHYYGPPTWTFGQGTKVEIKR
-2.28 | huC2C1A1A1-V5 (antibody, human IgG4 S228P, kappa, V domains shown, Humanized IgG4/kappa) VH: EVQLVESGGGLVQPGGSLRLSCAASGFTFSTYGMSWVRQSPDKRLEWVSTINSNGGSTSYPDSVKGRFTISRDNAKNTLYLQMRSLRAEDTAVYYCARFFRFRNAMDYWGQGTLVTVSS VL: DIQMTQSPSSLSASVGDRVTITCRTSENIYSYLAWYQQKPGKAPKLLIYNAKTLAEGVPSRFSGSGSGTDFTLTISSLQPEDFATYYCQHYYGPPTWTFGQGTKVEIKR
-1.23 | huC2C1A1A1-V8 (antibody, human IgG4 S228P, kappa, V domains shown, Humanized IgG4/kappa) VH: EVQLVESGGGLVQPGGSLRLSCAASGFTFSTYGMSWVRQSPDKRLEWVSTINSNGGSTSYPDSVKGRFTISRDNAKNTLYLQMRSLRAEDTAVYYCARFFRFRNAMDYWGQGTLVTVSS VL: DIQMTQSPSSLSASVGDRVTITCRTSENIYSYLAWYQQKPGKAPKFLIYNAKTLAEGVPSRFSGSGSGTDFTLTISSLQPEDFATYYCQHYYGPPTWTFGQGTKVEIKR
-0.24 | huC2C1A1A1-V9 (antibody, human IgG4 S228P, kappa, V domains shown, Humanized IgG4/kappa) VH: EVQLVESGGGLVQPGGSLRLSCAASGFTFSTYGMSWVRQAPGKGLVLVATINSNGGSTSYPDSVKGRFTISRDNAKNTLYLQMNSLRAEDTAVYYCARFFRFRNAMDYWGQGTLVTVSS VL: DIQMTQSPSSLSASVGDRVTITCRTSENIYSYLAWYQQKPGKAPKLLIYNAKTLAEGVPSRFSGSGSGTDFTLTISSLQPEDFATYYCQHYYGPPTWTFGQGTKVEIKR
0.8 | huC2C1A1A1-V14 (antibody, human IgG4 S228P, kappa, V domains shown, Humanized IgG4/kappa) VH: EVQLVESGGGLVQPGGSLRLSCAASGFTFSTYGMSWVRQAPGKGLVWVATINSNGGSTSYPDSVKGRFTISRDNAKNTLYLQMNSLRAEDTAVYYCARFFRFRNAMDYWGQGTLVTVSS VL: DIQMTQSPSSLSASVGQRVTITCRTSENIYSYLAWYQQKQGKPPRFLIYNAKTLAEGVPSRFSGSGSGTEFTLTITSLQAEDFGVYYCQHYYGPPTWTFGPGTKLEIKR
-0.62 | huC2C1A1A1-V3 (antibody, human IgG4 S228P, kappa, V domains shown, Humanized IgG4/kappa) VH: EVQLVESGGGLVQPGGSLRLSCAASGFTFSTYGMSWVRQAPGKGLVWVSTINSNGGSTSYPDSVKGRFTISRDNAKNTLYLQMNSLRAEDTAVYYCARFFRFRNAMDYWGQGTLVTVSS VL: DIQMTQSPSSLSASVGDRVTITCRTSENIYSYLAWYQQKPGKAPKFLVYNAKTLAEGVPSRFSGSGSGTDFTLTISSLQPEDFATYYCQHYYGPPTWTFGQGTKVEIKR
-0.2 | huC2C1A1A1-V2 (antibody, human IgG4 S228P, kappa, V domains shown, Humanized IgG4/kappa) VH: EVQLVESGGGLVQPGGSLRLSCAASGFTFSTYGMSWVRQAPGKGLVWVSTINSNGGSTSYPDSVKGRFTISRDNAKNTLYLQMNSLRAEDTAVYYCARFFRFRNAMDYWGQGTLVTVSS VL: DIQMTQSPSSLSASVGQRVTITCRTSENIYSYLAWYQQKQGKPPRFLIYNAKTLAEGVPSRFSGSGSGTEFTLTITSLQAEDFGVYYCQHYYGPPTWTFGPGTKLEIKR
-0.92 | huC2C1A1A1-V11 (antibody, human IgG4 S228P, kappa, V domains shown, Humanized IgG4/kappa) VH: EVQLVESGGGLVQPGGSLRLSCAASGFTFSTYGMSWVRQAPGKGLVLVATINSNGGSTSYPDSVKGRFTISRDNAKNTLYLQMNSLRAEDTAVYYCARFFRFRNAMDYWGQGTLVTVSS VL: DIQMTQSPSSLSASVGDRVTITCRTSENIYSYLAWYQQKPGKAPKFLVYNAKTLAEGVPSRFSGSGSGTDFTLTISSLQPEDFATYYCQHYYGPPTWTFGQGTKVEIKR

Molecular target: T2, human IL4Rα on HEK293T-IL4Rα-STAT6-STAT6LUC-LB2 cells (human, UniProt P24394 26-825)
Experiment: cell-based or functional assay

Inhibition of IL4-induced STAT6 phosphorylation (IC50, nM) [nM] | Inhibition of IL13-induced STAT6 phosphorylation (IC50, nM) [nM] | Binder
0.19 | 0.27 | Mouse C2C1A1A1 (antibody, V domains shown) VH: EVQLVESGGGLVQPGGSLKLSCAASGFTFSTYGMSWVRQTPDKRLELVATINSNGGSTSYPDSVKGRFTISRDNAKNTLYLQMSSLKSEDTAMFYCARFFRFRNAMDYWGQGTSVTVSS VL: DIQMTQSPASLSASVGETVTITCRTSENIYSYLAWYQQKQGKSPQFLVYNAKTLAEGVPSRFSGSGSGTQFSLNINSLQSEDFGSYYCQHYYGPPTWTFGGGTKLEIK

Molecular target: T2, human IL4Rα on …
Experiment: cell-based or functional assay
Remark: another data set of the same source

Inhibition of IL4-induced STAT6 phosphorylation (IC50, nM) [nM] | Inhibition of IL13-induced STAT6 phosphorylation (IC50, nM) [nM] | Binder
0.61 | 0.6 | huC2C1A1A1-V15 (antibody, human IgG4 S228P, kappa, V domains shown, Humanized IgG4/kappa) VH: EVQLVESGGGLVQPGGSLRLSCAASGFTFSTYGMSWVRQAPGKGLVWVATINSNGGSTSYPDSVKGRFTISRDNAKNTLYLQMNSLRAEDTAVYYCARFFRFRNAMDYWGQGTLVTVSS VL: DIQMTQSPSSLSASVGDRVTITCRTSENIYSYLAWYQQKPGKAPKFLVYNAKTLAEGVPSRFSGSGSGTDFTLTISSLQPEDFATYYCQHYYGPPTWTFGQGTKVEIKR
0.64 | 0.73 | huC2C1A1A1-V14 (antibody, human IgG4 S228P, kappa, V domains shown, Humanized IgG4/kappa) VH: EVQLVESGGGLVQPGGSLRLSCAASGFTFSTYGMSWVRQAPGKGLVWVATINSNGGSTSYPDSVKGRFTISRDNAKNTLYLQMNSLRAEDTAVYYCARFFRFRNAMDYWGQGTLVTVSS VL: DIQMTQSPSSLSASVGQRVTITCRTSENIYSYLAWYQQKQGKPPRFLIYNAKTLAEGVPSRFSGSGSGTEFTLTITSLQAEDFGVYYCQHYYGPPTWTFGPGTKLEIKR
